Consider 3 molecules from publication PMC3078326.

Data set [1] addresses T1, PU.1 Ets domain (UniProt P17947 170-253). Nature of the data set: competition.
Another data set deals with T2, Elk-1 Ets domain (UniProt P19419 5-86).
T2 sequence: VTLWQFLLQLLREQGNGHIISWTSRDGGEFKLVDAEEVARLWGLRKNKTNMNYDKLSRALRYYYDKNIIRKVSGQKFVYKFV
The experiment in a line: EMSA. For orientation: In EMSA bound probe runs differently from free probe, usually more slowly.

Data set [2] addresses T1, PU.1 Ets domain. Nature of the data set: EMSA.

B1: IR5 MT1 (dsDNA)
DNA 1: CTCACTTTTGCGTCCCGCCGC
DNA 2: GCGGCGGGACGCAAAAGTGAG
Consider B1, for which, in the data set with PU.1 Ets domain [1], the binding result is given as “no binding”.

B2: IR5 WT (dsDNA)
DNA 1: CTCACTTCCGCGTCCCGCCGC
DNA 2: GCGGCGGGACGCGGAAGTGAG
For the molecule B2, the values for the binding result in the data set with Elk-1 Ets domain and in the data set with PU.1 Ets domain [2] were “no binding” and “binds”, respectively.

B3: IR5 MT2 (dsDNA)
DNA 1: CTCACGGCCGCGTCCCGCCGC
DNA 2: GCGGCGGGACGCGGCCGTGAG
Consider B3, for which the binding result with PU.1 Ets domain [1] is listed as “no binding”.
